Source: article PMC3254608, “Inscuteable Regulates the Pins-Mud Spindle Orientation Pathway” (PLoS ONE, 2012)

T1: Pins TPR (residues 42-398), soluble (Drosophila, UniProt Q9VB22 42-398)
T1 construct: Partner of Inscuteable (Pins), Drosophila, residues 42-398, the TPR domain; it may be a hexahistidine fusion (pBH vector); also called Pins TPRs; source: E. coli BL21(DE3), purified
T1 sequence (looked up): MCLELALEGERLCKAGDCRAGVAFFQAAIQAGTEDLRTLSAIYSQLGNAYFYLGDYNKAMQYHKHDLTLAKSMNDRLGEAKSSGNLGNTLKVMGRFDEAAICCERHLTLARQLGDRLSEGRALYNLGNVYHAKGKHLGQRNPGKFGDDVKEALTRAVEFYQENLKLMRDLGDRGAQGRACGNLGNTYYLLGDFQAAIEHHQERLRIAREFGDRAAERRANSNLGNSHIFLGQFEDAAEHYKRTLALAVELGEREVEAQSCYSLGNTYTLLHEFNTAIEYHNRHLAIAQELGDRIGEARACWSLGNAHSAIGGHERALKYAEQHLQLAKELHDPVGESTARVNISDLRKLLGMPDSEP


Experiments:
[1] = molecular target: TMR-Mud peptide (Mud residues 1955-1970 with an NH2-terminal cysteine, labelled with tetramethylrhodamine) (Drosophila); assay: fluorescence polarisation; fluorescence anisotropy, direct titration: constant 100 nM TMR-Mud, increasing ligand, binding buffer, 20°C, fit to 1:1 binding
[2] = molecular target: T1, Pins TPR (residues 42-398), soluble; assay: fluorescence polarisation; fluorescence anisotropy, competition: Inscuteable added to a pre-formed complex of 100 nM TMR-Mud and 1 uM Pins, binding buffer, 20°C; conditions: both partners purified

Binder | Kd [1] | Kd [2]
Pins TPR (residues 42-398), soluble (domain or fragment) MCLELALEGERLCKAGDCRAGVAFFQAAIQAGTEDLRTLSAIYSQLGNAYFYLGDYNKAMQYHKHDLTLAKSMNDRLGEAKSSGNLGNTLKVMGRFDEAAICCERHLTLARQLGDRLSEGRALYNLGNVYHAKGKHLGQRNPGKFGDDVKEALTRAVEFYQENLKLMRDLGDRGAQGRACGNLGNTYYLLGDFQAAIEHHQERLRIAREFGDRAAERRANSNLGNSHIFLGQFEDAAEHYKRTLALAVELGEREVEAQSCYSLGNTYTLLHEFNTAIEYHNRHLAIAQELGDRIGEARACWSLGNAHSAIGGHERALKYAEQHLQLAKELHDPVGESTARVNISDLRKLLGMPDSEP | 1.1 µM | 
MBP-fusion of the central Ankyrin-repeat containing domain of Inscuteable (residues 252-600) (domain or fragment, Drosophila, UniProt Q24367 252-600, looked up, Inscuteable (Insc), Drosophila, residues 252-600, including the central Ankyrin-repeat containing region; pMAL-c2 based vector; also called MBP-Insc; source: E. coli BL21(DE3), purified (amylose resin)) APPPYNNETVTFGATEQDESLQQQPSPLRVRSLRFTASTSTPKSGSKIAKRGKKHPEPVASWMSEQRWAGEPEVMCTLQHKSIAQEAYKNYTITTSAVCKLVRQLQQQALSLQVHFERSERVLSGLQASSLPEALAGATQLLSHLDDFTATLERRGVFFNDAKIERRRYEQHLEQIRTVSKDTRYSLERQHYINLESLLDDVQLLKRHTLITLRLIFERLVRVLVISIEQSQCDLLLRANINMVATLMNIDYDGFRSLSDAFVQNEAVRTLLVVVLDHKQSSVRALALRALATLCCAPQAINQLGSCGGIEIVRDILQVESAGERGAIERREAVSLLAQITAAWHGSEH |  | 5 µM
